Biological target: PEDV nsp15 (H241A) (PEDV FJZZ strain)
Test: AUC

PEDV nsp15 (H241A) (enzyme)
percentage as hexamer: 81.2%

Reference: article PMC6078464
